{"source": "patent US20230295298A1", "about": "(PRECISION BIOLOGICS, published 2023)", "key": {"[1]": {"biological_target": "T1, human recombinant A33 antigen (human, UniProt Q99795 22-235)", "T1 construct": "also called rH-GPA33; rHGPA33", "T1 sequence": "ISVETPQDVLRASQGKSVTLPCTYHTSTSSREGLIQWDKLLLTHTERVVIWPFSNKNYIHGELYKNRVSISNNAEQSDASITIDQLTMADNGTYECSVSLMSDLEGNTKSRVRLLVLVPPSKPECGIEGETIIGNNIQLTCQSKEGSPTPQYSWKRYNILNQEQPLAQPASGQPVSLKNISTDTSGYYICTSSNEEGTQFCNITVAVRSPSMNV", "experiment": "rH-GPA33 binding ELISA"}, "[2]": {"biological_target": "T2, human A33 antigen, full length, on cells (human, UniProt Q99795 22-319)", "T2 construct": "CHO cells transfected with full length A33 cDNA (A33-CHO), or endogenous antigen of LS174T (colon) and AsPC-1 (pancreatic) tumour cells; The cell line is named under assay; also called A33-CHO; A33 antigen on LS174T cells", "T2 sequence": "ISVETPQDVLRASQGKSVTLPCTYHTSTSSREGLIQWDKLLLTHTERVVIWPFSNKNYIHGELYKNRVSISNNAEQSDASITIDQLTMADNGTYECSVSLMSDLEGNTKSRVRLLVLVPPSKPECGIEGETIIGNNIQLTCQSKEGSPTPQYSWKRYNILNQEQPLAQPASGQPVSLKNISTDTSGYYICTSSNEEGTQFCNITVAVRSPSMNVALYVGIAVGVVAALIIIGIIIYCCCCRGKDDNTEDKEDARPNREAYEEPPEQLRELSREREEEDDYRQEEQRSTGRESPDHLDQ", "experiment": "flow cytometry, AsPC-1 cells (first AsPC-1 column)"}, "[3]": {"biological_target": "T2, human A33 antigen, full length, on cells", "experiment": "IHC on LS174T FFPE sections, 20ug/mL", "method": "(§1) Human IgG ELISA, rH-GPA33 Binding ELISA, cell Flow Cytometry (LS174T or AsPAC1), IHC staining (LS174T FFPE, tumor FFPE and Frozen tumor sections) and Coomassie blue staining of SDS-PAGE gel were used for the screening. Antibody in the culture supernatant was purified by Protein A/G purification in the column and dissolved in PBS buffer after three times dialysis. Aliquots of the antibodies were kept at -20° C. for storage.\n(§2) Each combination was produced by transient transfection by using Expi293 Expression System Kit (Gibco, cat# A14635). […] Methods of Human IgG ELISA, rH-GPA33 Binding ELISA, LS174T cell Flow Cytometry, IHC staining on LS174T FFPE sections and Coomassie blue staining of SDS-PAGE gel were used for the initial screening."}, "[4]": {"biological_target": "T1, human recombinant A33 antigen", "experiment": "rH-GPA33 binding ELISA, 2ug/mL of 31.1, supernatant", "method": "as §1, §2"}, "[5]": {"biological_target": "T2, human A33 antigen, full length, on cells", "experiment": "flow cytometry on LS174T cells, 0.37ug/mL", "method": "as §1, §2"}, "[6]": {"biological_target": "T2, human A33 antigen, full length, on cells", "experiment": "IHC on LS174T FFPE sections, 20ug/mL, first result"}, "[7]": {"biological_target": "T2, human A33 antigen, full length, on cells", "experiment": "IHC on LS174T FFPE sections, 20ug/mL, repeat result"}}, "data": [{"binder": "H31.1 #6-biotin (antibody, human IgG1, kappa, V domains shown, biotinylated antibody, sites not stated, Biotinylated form of antibody #6; also called biotinylated #6; biotinylated h31.1 #6) VH: QIQLVQSGAEVKKPGASVKVSCKASGYTFTNYGMNWVRQAPGKGLEWMGWINTYTGEPTYAQKFQGRVTFTLDTSISTAYMELSRLRSDDTAVYFCARAYYGKYFDYWGQGTTVTVSS VL: SIQMTQSPSSLSASVGDRVTITCRASQSVSNDVAWYQQKPGQSPKLLIYYASNRYSGVPDRFSGSGYGTDFTLTISSLQPEDFAVYFCQQDYSSPLTFGAGTKLEIKR", "values": [{"measurement": "EC50", "setting": "[1]", "value": 12.8, "unit": "µg/mL"}, {"measurement": "EC50", "setting": "[2]", "value": 0.368, "unit": "µg/mL"}]}, {"binder": "humanized 31.1 antibody #15 (ven-HC + sdr-LC) (antibody, human IgG1, kappa, V domains shown, Full heavy and light chains; transient Expi293 expression, tested as culture supernatant; also called Sample ID 15; ven31.1-HC + sdr31.1-LC) VH: QIQLVQSGPEVKKPGASVKISCKASGYTFTNYGMNWVKQAPGQGLKWMGWINTYTGEPTYADDFKGRFAFTLDTSISTAYLEISRLRSDDTAVYFCARAYYGKYFDYWGQGTTLTVSS VL: SIQMTQSPSSLSASVGDRVTITCRASQSISNDLAWYQQKPGQSPKLLIYYASNRYTGVPDRFSGSGYGTDFTLTISSLQPEDFAVYFCQQDYSSPLTFGAGTKLEIKR", "values": [{"measurement": "H-Score of IHC", "setting": "[3]", "value": 90, "unit": "H-Score"}, {"measurement": "OD Value of rH-GPA33 Binding ELISA", "setting": "[4]", "value": 0.46, "unit": "OD"}, {"measurement": "MFI", "setting": "[5]", "value": 689, "unit": "MFI"}]}, {"binder": "humanized 31.1 antibody #13 (ven-HC + cdr-LC) (antibody, human IgG1, kappa, V domains shown, Full heavy and light chains; transient Expi293 expression, tested as culture supernatant; also called Sample ID 13; ven31.1-HC + cdr31.1-LC) VH: QIQLVQSGPEVKKPGASVKISCKASGYTFTNYGMNWVKQAPGQGLKWMGWINTYTGEPTYADDFKGRFAFTLDTSISTAYLEISRLRSDDTAVYFCARAYYGKYFDYWGQGTTLTVSS VL: SIVMTQSPSSLSASVGDRVTITCKASQSVSNDVAWYQQKPGQSPKLLIYYASNRYTGVPDRFSGSGYGTDFTLTISSLQPEDFAVYFCQQDYSSPLTFGAGTKLEIKR", "values": [{"measurement": "H-Score of IHC", "setting": "[3]", "value": 20, "unit": "H-Score"}, {"measurement": "OD Value of rH-GPA33 Binding ELISA", "setting": "[4]", "value": 1.27, "unit": "OD"}, {"measurement": "MFI", "setting": "[5]", "value": 1150, "unit": "MFI"}]}, {"binder": "H31.1 #5-biotin (antibody, human IgG1, kappa, V domains shown, biotinylated antibody, sites not stated, Biotinylated form of antibody #5; also called biotinylated #5; biotinylated h31.1 #5) VH: QIQLVQSGAEVKKPGASVKVSCKASGYTFTNYGMNWVRQAPGKGLEWMGWINTYTGEPTYAQKFQGRVTFTLDTSISTAYMELSRLRSDDTAVYFCARAYYGKYFDYWGQGTTVTVSS VL: SIVMTQSPSSLSASVGDRVTITCKASQSVSNDVAWYQQKPGQSPKLLIYYASNRYTGVPDRFSGSGYGTDFTLTISSLQPEDFAVYFCQQDYSSPLTFGAGTKLEIKR", "values": [{"measurement": "EC50", "setting": "[1]", "value": 0.679, "unit": "µg/mL"}, {"measurement": "EC50", "setting": "[2]", "value": 0.408, "unit": "µg/mL"}]}, {"binder": "humanized 31.1 antibody #14 (ven-HC + abb-LC) (antibody, human IgG1, kappa, V domains shown, Full heavy and light chains; transient Expi293 expression, tested as culture supernatant; also called Sample ID 14; ven31.1-HC + abb31.1-LC) VH: QIQLVQSGPEVKKPGASVKISCKASGYTFTNYGMNWVKQAPGQGLKWMGWINTYTGEPTYADDFKGRFAFTLDTSISTAYLEISRLRSDDTAVYFCARAYYGKYFDYWGQGTTLTVSS VL: SIQMTQSPSSLSASVGDRVTITCRASQSVSNDVAWYQQKPGQSPKLLIYYASNRYSGVPDRFSGSGYGTDFTLTISSLQPEDFAVYFCQQDYSSPLTFGAGTKLEIKR", "values": [{"measurement": "H-Score of IHC", "setting": "[6]", "value": 125, "unit": "H-Score"}, {"measurement": "OD Value of rH-GPA33 Binding ELISA", "setting": "[4]", "value": 1.44, "unit": "OD"}, {"measurement": "H-Score of IHC", "setting": "[7]", "value": 30, "unit": "H-Score"}, {"measurement": "MFI", "setting": "[5]", "value": 1060, "unit": "MFI"}]}, {"binder": "humanized 31.1 antibody #16 (ven31.1-HC + ven31.1-LC) (antibody, human IgG1, kappa, V domains shown, Full heavy and light chains; supernatant in the first screen, Protein A/G purified in the third round; also called Sample ID 16; ven-HC + ven-LC) VH: QIQLVQSGPEVKKPGASVKISCKASGYTFTNYGMNWVKQAPGQGLKWMGWINTYTGEPTYADDFKGRFAFTLDTSISTAYLEISRLRSDDTAVYFCARAYYGKYFDYWGQGTTLTVSS VL: SIVMTQSPSSLSVSVGDRVTITCKASQSVSNDVAWYQQKPGQSPKLLIYYASNRYTGVPDRFSGSGYGTDFTFTISSVQPEDLAVYFCQQDYSSPLTFGAGTKLELKR", "values": [{"measurement": "H-Score of IHC", "setting": "[6]", "value": 0, "unit": "H-Score"}, {"measurement": "OD Value of rH-GPA33 Binding ELISA", "setting": "[4]", "value": 1.74, "unit": "OD"}, {"measurement": "H-Score of IHC", "setting": "[7]", "value": 0, "unit": "H-Score"}, {"measurement": "MFI", "setting": "[5]", "value": 966, "unit": "MFI"}]}, {"binder": "humanized 31.1 antibody #8 (abb-HC + ven-LC) (antibody, human IgG1, kappa, V domains shown, Full heavy and light chains; transient Expi293 expression, tested as culture supernatant; also called Sample ID 8; abb31.1-HC + ven31.1-LC) VH: QIQLVQSGAEVKKPGASVKVSCKASGYTFTNYGMNWVRQAPGKGLEWMGWINTYTGEPTYAQKFQGRVTFTLDTSISTAYMELSRLRSDDTAVYFCARAYYGKYFDYWGQGTTVTVSS VL: SIVMTQSPSSLSVSVGDRVTITCKASQSVSNDVAWYQQKPGQSPKLLIYYASNRYTGVPDRFSGSGYGTDFTFTISSVQPEDLAVYFCQQDYSSPLTFGAGTKLELKR", "values": [{"measurement": "H-Score of IHC", "setting": "[3]", "value": 125, "unit": "H-Score"}, {"measurement": "OD Value of rH-GPA33 Binding ELISA", "setting": "[4]", "value": 1.2, "unit": "OD"}, {"measurement": "MFI", "setting": "[5]", "value": 934, "unit": "MFI"}]}]}
